# The supplement of paper PMC7877785
# ± gives the uncertainty stated by the source.
# Assay: self-splicing fitness, log relative to wild type (ln ratio); higher = more splicing; Tetrahymena group I intron in knt gene, E. coli kanamycin selection, DiMSum; sequences stand for … in CUCUCU…GGAGGGAAAAGUUAUCAGGCAUGCACCUGGUAGCUAGUCUUUAAACCAAUAGAUUGCAUCGGUUUAAAAGGCAAGACCGUCAAAUUGCGGGAAAGGGGUCAACAGCCGUUCAGUACCAAGUCUCAGGGGAAACUUUGAGAUGGCCUUGCAAAGGGUAUGGUAAUAAGCUGACGGACAUGGUCCUAACCACGCAGCCAAGUCCUAAGUCAACAGAUCUUCUGUUGAUAUGGAUGCAGUUCACAGACUAAAUGUCGGUCGGGGAAGAUGUAUUCUUCUCAUAAGAUAUAGUCGGACCUCUCCUUAAUGGGAGCUAGCGGAUGAAGUGAUGCAACACUGGAGCCGCUGGGAACUAAUUUGUAUGCGAAAGUAUAUUGAUUAGUUUUGGAGUACUCGUGGUCG
# In short: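 Fitness was computed with DiMSum as the error-weighted combination of replicate fold changes, kanamycin versus none, each normalised to wild type. The library randomised all eight intron nucleotides of the P1ex region, with the intron placed in the knt kanamycin-resistance gene on pET-22b(+) in E. coli BL21(DE3). Six replicate transformations were grown overnight at 37°C or 30°C on LB agar with or without 25 μg/mL kanamycin, plus 100 μg/mL carbenicillin, 50 μM IPTG and 0.2% rhamnose. Pooled colonies were amplicon-sequenced on an Illumina HiSeq 2500.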
Sequence,self-splicing fitness (ln) (30 °C),self-splicing fitness (ln) (37 °C)
AAAUAGCAAUAUUACGACUG,-0.98 ± 0.12,-0.722 ± 0.18
AAAUAGCAAUAUUACGAGCU,-1.37 ± 0.12,-0.386 ± 0.13
AAAUAGCAAUAUUACGAUAA,-1.51 ± 0.12,-0.658 ± 0.13
AAAUAGCAAUAUUACGAUAU,-1.21 ± 0.13,-0.352 ± 0.16
AAAUAGCAAUAUUACGCAGU,-3.79 ± 0.2,-1.57 ± 0.14
AAAUAGCAAUAUUACGCAUG,-1.27 ± 0.11,-1.03 ± 0.12
AAAUAGCAAUAUUACGCCAC,-3.22 ± 0.36,-2.18 ± 0.5
AAAUAGCAAUAUUACGCGUG,-1.11 ± 0.078,-0.804 ± 0.11
AAAUAGCAAUAUUACGGAAA,-2.87 ± 0.26,-1.53 ± 0.17
AAAUAGCAAUAUUACGGAAU,-3.69 ± 0.17,-2.24 ± 0.16
AAAUAGCAAUAUUACGGCGG,-1.48 ± 0.086,-0.335 ± 0.1
AAAUAGCAAUAUUACGGGGU,-3.27 ± 0.17,-2.12 ± 0.19
AAAUAGCAAUAUUACGUAAA,-1.61 ± 0.096,-0.713 ± 0.11
AAAUAGCAAUAUUACGUACC,-0.0895 ± 0.18,-1.39 ± 0.24
AAAUAGCAAUAUUACGUACG,-1.1 ± 0.11,-1.16 ± 0.13
AAAUAGCAAUAUUACGUCAA,-2.07 ± 0.17,-1.8 ± 0.18
AAAUAGCAAUAUUACGUCAG,-2.52 ± 0.12,-1.41 ± 0.11
AAAUAGCAAUAUUACGUCCG,-1.39 ± 0.16,0.00872 ± 0.18
AAAUAGCAAUAUUACGUUGG,-4.2 ± 0.22,-2.57 ± 0.21
AACAAGCAAUAUUACGAAAC,-3.9 ± 0.23,-2.33 ± 0.27
AACAAGCAAUAUUACGAAGU,-2.46 ± 0.085,-1.29 ± 0.099
AACAAGCAAUAUUACGAGCG,-0.912 ± 0.057,0.125 ± 0.078
AACAAGCAAUAUUACGAUGA,-0.584 ± 0.072,-0.801 ± 0.073
AACAAGCAAUAUUACGAUUC,-1.61 ± 0.11,-0.551 ± 0.12
AACAAGCAAUAUUACGCAUU,-2.01 ± 0.069,-1.32 ± 0.091

Sequence,self-splicing fitness (ln) (30 °C),self-splicing fitness (ln) (37 °C)
AACAAGCAAUAUUACGCCCG,-0.206 ± 0.11,-0.347 ± 0.17
AACAAGCAAUAUUACGCCGU,-1.5 ± 0.096,-0.696 ± 0.094
AACAAGCAAUAUUACGCGAC,-2.41 ± 0.21,-1.47 ± 0.21
AACAAGCAAUAUUACGCGUA,-1.13 ± 0.067,-0.921 ± 0.078
AACAAGCAAUAUUACGCUGA,-1.34 ± 0.087,-1.01 ± 0.11
AACAAGCAAUAUUACGGAGU,-2.72 ± 0.07,-1.58 ± 0.078
AACAAGCAAUAUUACGGCAA,-0.882 ± 0.069,0.119 ± 0.077
AACAAGCAAUAUUACGGCAC,-0.526 ± 0.067,-0.265 ± 0.1
AACAAGCAAUAUUACGGUUC,-2.97 ± 0.12,-2.43 ± 0.12
AACAAGCAAUAUUACGUAAU,-1.98 ± 0.074,-0.78 ± 0.08
AACAAGCAAUAUUACGUCAA,-1.68 ± 0.094,-1.59 ± 0.11
AACAAGCAAUAUUACGUCAU,-2.35 ± 0.075,-1.59 ± 0.082
AACCAGCAAUAUUACGAACG,-1.27 ± 0.08,-1.25 ± 0.089
AACCAGCAAUAUUACGAAUG,-2.22 ± 0.089,-1.89 ± 0.083
AACCAGCAAUAUUACGACUC,-0.597 ± 0.053,-0.327 ± 0.066
AACCAGCAAUAUUACGACUG,-3.11 ± 0.15,-1.83 ± 0.12
AACCAGCAAUAUUACGAGAC,-3.67 ± 0.39,-1.71 ± 0.18
AACCAGCAAUAUUACGAGGC,-3.43 ± 0.23,-2.2 ± 0.18
AACCAGCAAUAUUACGAGUG,-0.0963 ± 0.045,-0.0773 ± 0.06
AACCAGCAAUAUUACGAUCA,-0.638 ± 0.1,-0.0996 ± 0.11
AACCAGCAAUAUUACGAUGU,-0.353 ± 0.039,0.149 ± 0.054
AACCAGCAAUAUUACGAUUU,0.157 ± 0.044,-0.0356 ± 0.058
AACCAGCAAUAUUACGCCGC,-4.1 ± 0.3,-2.45 ± 0.35
AACCAGCAAUAUUACGCCUC,-0.868 ± 0.13,-0.399 ± 0.16
AACCAGCAAUAUUACGCGCA,-0.111 ± 0.068,-0.00763 ± 0.089

Sequence,self-splicing fitness (ln) (30 °C),self-splicing fitness (ln) (37 °C)
AACCAGCAAUAUUACGCUCA,-0.325 ± 0.049,0.493 ± 0.072
AACCAGCAAUAUUACGCUGA,-2.56 ± 0.1,-1.51 ± 0.094
AACCAGCAAUAUUACGCUUG,-1.94 ± 0.089,-1.07 ± 0.11
AACCAGCAAUAUUACGGAAA,-1.73 ± 0.097,-0.275 ± 0.088
AACCAGCAAUAUUACGGACU,-0.113 ± 0.061,0.226 ± 0.082
AACCAGCAAUAUUACGGCGU,0.196 ± 0.054,0.259 ± 0.068
AACCAGCAAUAUUACGGGAC,-2.39 ± 0.094,-2.11 ± 0.09
AACCAGCAAUAUUACGGUGC,-3.48 ± 0.16,-1.75 ± 0.13
AACCAGCAAUAUUACGGUGU,-1.87 ± 0.061,-2.56 ± 0.11
AACCAGCAAUAUUACGGUUA,-2.14 ± 0.099,-0.269 ± 0.084
AACCAGCAAUAUUACGUACG,-1.42 ± 0.063,-0.431 ± 0.067
AACCAGCAAUAUUACGUCAG,-2.3 ± 0.079,-1.49 ± 0.086
AACCAGCAAUAUUACGUCAU,-1.23 ± 0.063,-1.14 ± 0.067
AACCAGCAAUAUUACGUCGG,-3.79 ± 0.12,-1.41 ± 0.094
AACCAGCAAUAUUACGUUGA,-1.65 ± 0.083,-0.421 ± 0.087
AACGAGCAAUAUUACGAACG,-3.03 ± 0.45,-1.37 ± 0.28
AACGAGCAAUAUUACGACAU,-2.2 ± 0.015,-1.33 ± 0.033
AACGAGCAAUAUUACGAGGU,-3.56 ± 0.18,-1.96 ± 0.16
AACGAGCAAUAUUACGAUAC,-2.52 ± 0.37,-1.97 ± 0.46
AACGAGCAAUAUUACGAUAU,-3.13 ± 0.21,-1.3 ± 0.17
AACGAGCAAUAUUACGAUCG,-1.19 ± 0.14,-1.06 ± 0.16
AACGAGCAAUAUUACGAUUC,–,0.32 ± 0.17
AACGAGCAAUAUUACGCAUG,-4.23 ± 0.31,-2.76 ± 0.29
AACGAGCAAUAUUACGGCCG,-1.2 ± 0.12,-1.07 ± 0.21
AACGAGCAAUAUUACGUGCU,-3.09 ± 0.21,-2.16 ± 0.28
